According to the RNAGym collection of RNA variant scans (doi:10.1073/pnas.2313332121):

B1: TPR t1 (parent)
chain: GACCAAUCUGCCCUCAGAGCUCGAGAACAUCUUCGGAUGCAGAGGAGGCAGGCUUCGGUGGCGCGAUAGCGCCAACGUCCUCAACCUCCAAUGCAUCCCACCACAUGAUGAUGCCUGAAGAGCCUUGGUUUUUUG

Variants of: B1
Test: polymerase ribozyme fitness, log enrichment relative to wild type (log ratio); higher = more active; in vitro selection for triplet polymerase activity
Summary of the method: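 Mutant libraries were PCR-built and transcribed for each subunit of a heterodimeric triplet polymerase ribozyme and selected for one round in triplicate at −7 °C, frozen, before gel excision of extended constructs and streptavidin-bead capture. Input and output libraries were Illumina-sequenced, keeping genotypes with ≥10 input reads and ≥1 read per output. Fitness is a logarithmic ratio of genotype to wild-type enrichment, in base 2, using inverse-variance-weighted replicate averages.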

Variant	polymerase ribozyme fitness (log ratio)
C8G C56A C124G	1.48
G45A C102A G122A	-3.14
C34A C73U A74U	-3.25
C11A A50U	-2.48
C11G C40A C99U	-4.65
C11U G48U G57U G61C C89U U106A	-3.19
G10A C12A A29G G52U C56A G57C	-2.57
G36U G44A G47A G48U C82G A121C	-0.473
C124G U131A	2.2
G42U C56U C115G	-2.13
C3U A50U G52U	-3.28
G44U C64G C101G A121U	-6.22
C56U C101A C114A	-2.61
C53A U59C	0.311
G10C C11A U54G A68U U109A G128U	-7.09
C13U C62A U78C A118U G122A	-2.29
C49A A90U A91U A111C A119G U130A U131C	-2.85
C8G G61A C72U G128C	-0.569
G10A U131A	-0.339
C11G U32C A41G G45A A90C U96C C98U U106G A111U	-6.91
G10U G113C G120U A121C	-2.24

Variant	polymerase ribozyme fitness (log ratio)
A41U C53U G117C U131A	-5.46
C15G A118U C123U	-0.83
C22G A90C U92C G120C	-3.7
A6G C8A A26G A84U C99A	-5.28
G42U G47C	-5.66
A5C U9C G61C	-1.78
C56A C73U C88U U126G	-3.16
A29U C73A A118U	-0.992
G71A C79U C123U	1.66
A66C C94A C114G G120C	-5.33
C64A C123U	-4.1
A24U	-5.7
U30C A41G U78A A91G A108G	-2.61
C79A U112A C115A C123G	0.259
G17C C22G G61U	-6.24
C56A A95C U106A C124U	0.424
A27C G77A	-4.66
A37U G122A	-1.18
G47U U106C	-1.89
A29U G113C	-2.87
A16U U59G	-1.3

Variant	polymerase ribozyme fitness (log ratio)
C34U C123G	-1.94
U14G G61A	-1.48
C3U C11U A50U C64U U81G C102U G128A	-3.47
C20U C56U	-1.64
G36A G42A A43C C53U	-3.85
A37C G60U U81A A121C	0.858
C62A C72U G117A U129A U130C	-2.9
C15U C62G C82A	-2.4
U9A G58C A66G C85U	-0.571
C40G G52A	-0.59
G47U A95U A108G C123A	-3.06
A66U U116G	-3.73
G10C G57A C88U U112G	-3.48
C53A G110A	-0.6
G44C G47U U81A	-4.12
C34A G42C A121C	-4.79
U14G G48A C104A	-3.69
G10U A29U C70G G113A	-4.17
C13A G93U C98U	-4.03
C13U A18C G77A	-1.41
G39U G48C U78G G113U	-4.42

Variant	polymerase ribozyme fitness (log ratio)
C11U C49G	-1.44
U9C C22G C31G U38G A121U	-6.73
U7C G10A U14A C53G C56G A84U G117U	-6.36
G58C A68G C86A C115U	-6.11
G60U U81A	-0.347
A37U G69A A83U U96A C124U U131A	-1.63
C79A G113A C124G	-3.89
C13G G19U G61U C73U G113U	-5.34
G19U G69U G110C	-3.55
G57A A119G	0.755
A50U C53A U54A G93U A105U	-3.45
C85A G127C	-4.59
U59A C82G	-0.809
A6C C8A C49A C56U	-0.31
C40G A43U U59A C70A C114A G117U	-6.29
C28G A43G G45A C79A C115U G117U	-5.19
A46G U55C C70U A100U G127A	-2.53
G63A U116G	-3.24
A16G A37U G71U A90G	-1.9
G51U G61C U133G	-2.81
